From patent US20160237160A1 (Bayer, published 2016)

Columns and labels:
Test in all cases: ELISA, Fc fusion protein coated at 1 µg/ml, TPP-2090 at 75 nM, Amplex Red;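 further: binding reported as ELISA signal intensity in Rfu against a panel of TNF receptor superfamily members presented as Fc fusion proteins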
[1] = molecular target: T1, CD95 (TNFRSF6) Fc fusion protein (Human, UniProt P25445 26-173)
T1 construct: extracellular domain; bought
T1 sequence (looked up): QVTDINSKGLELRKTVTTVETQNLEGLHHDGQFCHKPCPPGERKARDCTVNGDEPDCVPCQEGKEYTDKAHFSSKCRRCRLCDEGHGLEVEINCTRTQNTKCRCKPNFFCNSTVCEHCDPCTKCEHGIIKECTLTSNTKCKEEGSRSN
From the text: (§1) Shown is the result of an ELISA: Y is “ELISA signal intensity [Rfu]”; X are “TNF receptor superfamily proteins tested (Fc-fusion proteins)”: 1 is “TWEAKR”; 2 is “TWEAKR”; 3 is “Apo-3”; 4 is “Trail-R1”; 5 is “Trail-R2”; 6 is “CD385”; 7 is “CD95”; 8 is “Rank”; 9 is “TNF-R1”; 10 is “TNF-R2”; 11 is “BAFF-R”; 12 is “DcR3”; 13 is “BCMA”; 14 is “TACI”; 15 is “OX40”; 16 is “CD30”; 17 is “CD27”; 18 is “CD40”; 19 is “Osteoprotegerin”; 20 is “EDAR”; 21 is “GITR”; 22 is “HVEM”; 23 is “NGF R”; 24 is “Trail R3”; 25 is “Lymphotioxin B R”; 26 is “Trail R4”; 27 is “EDA2R”; 28 is “TROY”; 29 is “RELT”; 30 is “4-1BB”.
(§2) To collect dose-response data a serial 3fold dilution of biotinylated IgG starting with a concentration of 2 μM was used as soluble binding partner. Detection was done with anti-hIgG1-HRP and Amplex Red.

[2] = molecular target: T2, TNF-R1 (TNFRSF1A) Fc fusion protein (Human, UniProt P19438 30-211)
T2 construct: extracellular domain; bought
T2 sequence (looked up): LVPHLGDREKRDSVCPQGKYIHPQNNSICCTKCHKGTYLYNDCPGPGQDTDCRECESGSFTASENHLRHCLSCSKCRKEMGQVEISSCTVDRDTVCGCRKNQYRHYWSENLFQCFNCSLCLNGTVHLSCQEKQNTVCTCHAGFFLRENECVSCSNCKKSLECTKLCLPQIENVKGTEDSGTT
From the text: as §1, §2

[3] = molecular target: T3, TNF-R2 (TNFRSF1B) Fc fusion protein (Human, UniProt P20333 23-257)
T3 construct: extracellular domain; bought
T3 sequence (looked up): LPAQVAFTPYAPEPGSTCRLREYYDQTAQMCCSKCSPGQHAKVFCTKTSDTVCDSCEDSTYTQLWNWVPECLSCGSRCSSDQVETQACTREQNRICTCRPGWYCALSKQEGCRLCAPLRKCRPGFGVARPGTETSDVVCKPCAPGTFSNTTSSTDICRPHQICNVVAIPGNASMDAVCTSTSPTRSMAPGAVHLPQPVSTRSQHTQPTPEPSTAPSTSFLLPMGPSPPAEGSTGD
From the text: as §1, §2

[4] = molecular target: T4, BAFF-R (TNFRSF13C) Fc fusion protein (Human, UniProt Q96RJ3 1-78)
T4 construct: extracellular domain; bought
From the text: as §1, §2

[5] = molecular target: T5, BCMA (TNFRSF17) Fc fusion protein (Human, UniProt Q02223 1-54)
T5 construct: extracellular domain; bought
T5 sequence (looked up): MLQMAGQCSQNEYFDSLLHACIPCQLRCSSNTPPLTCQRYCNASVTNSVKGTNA
From the text: as §1, §2

[6] = molecular target: T6, CD30 (TNFRSF8) Fc fusion protein (Human, UniProt P28908 19-385)
T6 construct: extracellular domain; bought
T6 sequence (looked up): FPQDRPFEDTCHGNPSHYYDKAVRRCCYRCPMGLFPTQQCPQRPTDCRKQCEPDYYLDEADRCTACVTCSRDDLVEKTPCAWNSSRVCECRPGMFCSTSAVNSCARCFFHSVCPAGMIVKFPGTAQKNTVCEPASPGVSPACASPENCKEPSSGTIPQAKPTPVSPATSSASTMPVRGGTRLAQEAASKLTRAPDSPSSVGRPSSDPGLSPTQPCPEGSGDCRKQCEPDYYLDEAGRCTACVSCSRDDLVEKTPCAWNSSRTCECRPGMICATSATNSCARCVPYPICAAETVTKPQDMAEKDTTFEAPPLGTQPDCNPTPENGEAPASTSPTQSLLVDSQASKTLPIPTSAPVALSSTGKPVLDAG
From the text: as §1, §2

[7] = molecular target: T7, CD27 (TNFRSF7) Fc fusion protein (Human, UniProt P26842 20-191)
T7 construct: extracellular domain; bought
From the text: as §1, §2

[8] = molecular target: T8, CD40 (TNFRSF5) Fc fusion protein (Human, UniProt P25942 21-193)
T8 construct: extracellular domain; bought
From the text: as §1, §2

[9] = molecular target: T9, Osteoprotegerin (TNFRSF11B) Fc fusion protein (Human, UniProt O00300 22-194, limits assumed)
T9 construct: extracellular domain; bought
T9 sequence (looked up): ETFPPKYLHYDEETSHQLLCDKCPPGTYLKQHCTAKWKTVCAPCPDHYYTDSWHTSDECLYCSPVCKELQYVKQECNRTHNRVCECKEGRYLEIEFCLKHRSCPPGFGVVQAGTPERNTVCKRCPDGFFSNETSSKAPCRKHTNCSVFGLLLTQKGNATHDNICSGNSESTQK
From the text: as §1, §2

EDAR Fc fusion protein = molecular target: T10, EDAR Fc fusion protein (Human, UniProt Q9UNE0 27-187)
T10 construct: extracellular domain; bought
T10 sequence (looked up): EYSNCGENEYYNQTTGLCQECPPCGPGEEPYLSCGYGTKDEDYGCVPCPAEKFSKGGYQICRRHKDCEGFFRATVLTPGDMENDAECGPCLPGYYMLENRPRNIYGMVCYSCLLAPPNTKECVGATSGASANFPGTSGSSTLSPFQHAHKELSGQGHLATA
From the text: as §1, §2

[10] = molecular target: T11, Lymphotioxin β R Fc fusion protein (Human, UniProt P36941 31-227)
T11 construct: extracellular domain; bought; also called Lymphotioxin B R
From the text: as §1, §2

[11] = molecular target: T12, RELT (TNFRSF19L) Fc fusion protein (Human, UniProt Q969Z4 26-162)
T12 construct: extracellular domain; bought
T12 sequence (looked up): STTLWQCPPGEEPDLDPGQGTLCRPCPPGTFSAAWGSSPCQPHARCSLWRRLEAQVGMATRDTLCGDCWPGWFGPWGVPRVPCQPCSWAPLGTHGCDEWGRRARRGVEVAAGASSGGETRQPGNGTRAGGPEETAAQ
From the text: as §1, §2

[12] = molecular target: T13, 4-1BB (TNFRSF9) Fc fusion protein (Human, UniProt Q07011 24-186)
T13 construct: extracellular domain; bought
From the text: as §1, §2

Measured: binding result

T13 sequence (Q07011 24-186): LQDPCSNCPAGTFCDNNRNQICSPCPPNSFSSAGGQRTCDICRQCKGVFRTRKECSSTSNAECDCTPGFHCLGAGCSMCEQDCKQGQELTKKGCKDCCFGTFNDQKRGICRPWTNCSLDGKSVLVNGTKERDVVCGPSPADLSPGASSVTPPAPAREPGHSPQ
T11 sequence (P36941 31-227): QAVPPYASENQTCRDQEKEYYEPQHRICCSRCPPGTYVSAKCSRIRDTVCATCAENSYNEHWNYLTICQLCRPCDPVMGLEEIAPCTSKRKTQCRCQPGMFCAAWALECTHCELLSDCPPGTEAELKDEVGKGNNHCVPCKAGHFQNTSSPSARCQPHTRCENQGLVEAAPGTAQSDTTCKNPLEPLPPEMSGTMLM
T8 sequence (P25942 21-193): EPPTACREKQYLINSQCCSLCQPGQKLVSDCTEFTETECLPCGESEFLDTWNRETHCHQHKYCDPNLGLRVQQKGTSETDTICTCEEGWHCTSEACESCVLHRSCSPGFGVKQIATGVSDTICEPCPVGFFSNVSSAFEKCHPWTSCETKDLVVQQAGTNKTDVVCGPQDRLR
T7 sequence (P26842 20-191): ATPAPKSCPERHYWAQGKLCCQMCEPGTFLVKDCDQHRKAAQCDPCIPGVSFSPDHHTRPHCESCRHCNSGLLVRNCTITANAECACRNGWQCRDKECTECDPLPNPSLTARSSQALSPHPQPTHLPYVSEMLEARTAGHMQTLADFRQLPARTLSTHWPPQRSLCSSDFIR

B1: TPP-2090 (antibody, human IgG1, kappa, V domains shown)
VH: EVQLLESGGGLVQPGGSLRLSCAASGFTFSPYPMIWVRQAPGKGLEWVSYISPSGGSTHYADSVKGRFTISRDNSKNTLYLQMNSLRAEDTAVYYCARGGDTYFDYFDYWGQGTLVTVSS
VL: DIQMTQSPSSLSASVGDRVTITCRASQSISGYLNWYQQKPGKAPKLLIYQASSLQSGVPSRFSGSGSGTDFTLTISSLQPEDFATYYCQQSYTSPFITFGQGTKVEIKR
notes: Human IgG1
no binding (tested: 75 nM): all assays above
